Assay [1] deals with T1, human ASGR-1 (wild type) (human, UniProt P07306 1-291).
T1 construct: also called wt ASGR1; huASGR-1
T1 sequence: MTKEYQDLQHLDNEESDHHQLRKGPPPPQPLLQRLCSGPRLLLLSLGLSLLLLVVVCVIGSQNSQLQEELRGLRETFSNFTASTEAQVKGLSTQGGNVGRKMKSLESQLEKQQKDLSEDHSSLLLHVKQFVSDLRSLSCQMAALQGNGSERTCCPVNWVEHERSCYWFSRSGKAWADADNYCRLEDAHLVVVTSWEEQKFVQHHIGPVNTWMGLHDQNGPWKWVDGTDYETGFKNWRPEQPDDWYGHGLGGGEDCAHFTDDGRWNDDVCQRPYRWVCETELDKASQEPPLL
Briefly: FACS, transfected CHO-S cells, mAb 5 ug/ml. On the procedure:
(§1) The ability of human ASGR-1-specific, ligand competing antibodies to bind to the mutant hASGR-1 proteins was assessed by FACS as described above.
(§2) Antibodies were tested for binding to the individual mutant and wild type ASGR-1 constructs using normalized antibody concentrations (5 ug/ml). CHO—S cells transiently expressing the appropriate mutated or non-mutated antigen of interest were mixed with antibody sample or controls, incubated for 1 hour at 4° C., and then washed twice. Cells with bound antibody were then incubated with Alexa Fluor® 647 IgG Fc fragment-specific detection antibody and 7-AAD viability stain for 15 minutes at 4° C., washed once and resuspended in FACS buffer. Samples were analyzed using a BD Accuri™ Flow Cytometer and an Intellicyt HyperCyt Autosampler. As a negative control, supernatants and controls were also screened against CHO—S cells transfected with empty parental vector (referred to as mock). […] Because mutant hASGR-1 expression levels varied relative to each other, sample binding data for each construct was normalized for expression by dividing the binding data from an antibody not affected by the mutations (e.g., 65C12) by the binding values of each test antibody on a given mutant construct. Also, because the antibody binding affinities varied amongst the samples, the expression corrected data (above) was further normalized by comparing test antibody binding on each mutant construct to wild type hASGR-1. Identification of specific mutations that affected test antibody binding was performed by an interquartile range (IQR) analysis to determine statistical outliers. A mutation was identified as a “hit” if the calculated values were >3× the IQR (above the 3rd quartile/upper fence) for a given mutant construct. Although IQR analysis was used here to determine signifance and identify hits, one skilled in the art will recognize that a number of methods could be employed in order to normalize the data (eg. using epitope-tagged constructs or other ASGR-1-binding antibodies directed against non-CBD epitopes).
In general terms: A flow cytometer gives signals particle by particle.

The target in assay [2] is T2, human ASGR-1 mutant construct H203 (human, UniProt P07306 1-291).
T2 construct: Arg/Glu scanning: non-arginine residues were changed to arginine; Transiently expressed on CHO-S cells
T2 sequence: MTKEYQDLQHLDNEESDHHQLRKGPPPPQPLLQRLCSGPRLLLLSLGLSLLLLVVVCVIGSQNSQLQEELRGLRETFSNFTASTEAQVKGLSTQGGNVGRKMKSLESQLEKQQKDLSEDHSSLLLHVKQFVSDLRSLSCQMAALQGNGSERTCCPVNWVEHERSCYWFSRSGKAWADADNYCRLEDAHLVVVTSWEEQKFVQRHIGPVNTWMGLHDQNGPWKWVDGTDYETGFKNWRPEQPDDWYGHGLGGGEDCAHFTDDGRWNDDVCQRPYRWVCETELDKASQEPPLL
Nature of the assay: FACS, transfected CHO-S cells, mAb 5 ug/ml. On the procedure:
as §1, §2

Assay [3] has as its target T2, human ASGR-1 mutant construct H203. Nature of the assay: FACS ratio: H203 normalized value / wt normalized value. On the procedure: as §1, §2
The target in assay [4] is T1, human ASGR-1 (wild type). Briefly: FACS ratio: 65C12 geomean / this mAb geomean. On the procedure: (§3) Mutant hASGR-1 variants were constructed such that non-arginine residues were changed to arginine and where wild type arginine residues were mutated to glutamic acid. Each mutant hASGR-1 sequence was then cloned into a mammalian expression vector and used to transiently transfect CHOs cells. The ability of human ASGR-1-specific, ligand competing antibodies to bind to the mutant hASGR-1 proteins was assessed by FACS as described above.
(§4) Antibodies were tested for binding to the individual mutant and wild type ASGR-1 constructs using normalized antibody concentrations (5 ug/ml). CHO—S cells transiently expressing the appropriate mutated or non-mutated antigen of interest were mixed with antibody sample or controls, incubated for 1 hour at 4° C., and then washed twice. Cells with bound antibody were then incubated with Alexa Fluor® 647 IgG Fc fragment-specific detection antibody and 7-AAD viability stain for 15 minutes at 4° C., washed once and resuspended in FACS buffer. Samples were analyzed using a BD Accuri™ Flow Cytometer and an Intellicyt HyperCyt Autosampler. As a negative control, supernatants and controls were also screened against CHO—S cells transfected with empty parental vector (referred to as mock). […] Because mutant hASGR-1 expression levels varied relative to each other, sample binding data for each construct was normalized for expression by dividing the binding data from an antibody not affected by the mutations (e.g., 65C12) by the binding values of each test antibody on a given mutant construct. Also, because the antibody binding affinities varied amongst the samples, the expression corrected data (above) was further normalized by comparing test antibody binding on each mutant construct to wild type hASGR-1. Identification of specific mutations that affected test antibody binding was performed by an interquartile range (IQR) analysis to determine statistical outliers. A mutation was identified as a “hit” if the calculated values were >3× the IQR (above the 3rd quartile/upper fence) for a given mutant construct.

Assay [5] addresses T2, human ASGR-1 mutant construct H203. Nature of the assay: FACS ratio: 65C12 geomean / this mAb geomean. On the procedure:
as §3, §4

B1: 65C12 (antibody, V domains shown)
VH: EVQLVESGGGLVKPGGSLRLSCAASGFTFRSFSLNWVRQAPGKGLEWVSSISSSSSYIYYADSVKGRFTISRDNAKNSLYLQMNSLRAEDTAVYYCARDAYSHYWGQGTLVTVSS
VL: EIVMTQSPATLSVFPGEGATLSCRASQSVSINLAWYQQKPGQAPRLLIYGASTRATGIPARFNASGSGTEFTLSISSLQSENFAVYYCQQYNTWPLTFGGGTKVEIK
notes: mAb
In the case of B1, the “FACS Binding Geomean” value with human ASGR-1 (wild type) [1] was determined as 56100; in assay [2], 25800. In assay [3], the “Normalization to wt ASGR1 Binding” value worked out at 1. Further, the “Expression Normalization to mAb 65C12” value (with human ASGR-1 (wild type) [4]; in assay [5]) was 1 each time.

B2: 146B6 (antibody, V domains shown)
VH: EVQLVESGGGLVQPGGSLRLSCAASGFTFSSYNMNWVRQAPGKGLEWVSYISRSSNTKHYADSVKGRFTISRDNAKNSLYLQMDSLRDEDTAVYYCARDRSGSYGYFYYYGLDVWGQGTTVTVSS
VL: not shown
notes: mAb
Regarding B2, the figures for the “FACS Binding Geomean” value (in the assay with human ASGR-1 (wild type) [1]; in assay [2]) were 24100 and 14400, respectively. Besides, in assay [3], the “Normalization to wt ASGR1 Binding” value stood at 0.769. In addition, the results for the “Expression Normalization to mAb 65C12” value (with human ASGR-1 (wild type) [4]; in assay [5]) were 2.32 and 1.79, respectively.

B3: 65D5 (antibody, V domains shown)
VH: QVQLVQSGAEVKKPGASVKVSCKASGYTFPSYGISWVRQAPGQGLEWMGWISAYSGNTNYAQKLQGRVTMTTDTSTSTAYMELRSLRSDDTAVYFCARGEAVAVFDPWGQGTLVTVSS
VL: DIQMTQSPSSLSASVGDRVTITCRASQDINNYLAWFQQKPGKAPRSLIYAASSLHSGVPSQFSASGSGSDFTLTISSLQPEDFATYYCPLYKSYPLTFGPGTKVDIK
notes: mAb
As to B3, the “FACS Binding Geomean” value with human ASGR-1 (wild type) [1] worked out at 41000; in assay [2], 20300. Further, in assay [3], the “Normalization to wt ASGR1 Binding” value was 0.928. Further, the entries for the “Expression Normalization to mAb 65C12” value (in the assay with human ASGR-1 (wild type) [4]; in assay [5]) were 1.37 and 1.27, respectively.

B4: 199A7 (antibody, V domains shown)
VH: QVQLVESGGGVVQPGRSLRLSCAASGFTFSNYGMHWVRQAPGKGLEWVAIIWFDGSNKYYADSVKGRFTISRDNSKNTLFLQMSSLRAEDTAVYYCAREWLQFRYYYGMDVWGQGTTVTVSS
VL: DIQMTQSPSSLSASVGDRVTITCRASQGIRKDLGWYQQKPGKAPKRLIYAASSLQSGVPSRFSGSGSGTEFTLTISSLQPEDFATYVCLQHYRYPFTFGPGTKVDFK
notes: mAb
As for B4, the “FACS Binding Geomean” value with human ASGR-1 (wild type) [1] came to 17000; in assay [2], 9460. The “Normalization to wt ASGR1 Binding” value in assay [3] is 0.826. The “Expression Normalization to mAb 65C12” value with human ASGR-1 (wild type) [4] came to 3.3; in assay [5], 2.72.

B5: 173C11 (antibody, V domains shown)
VH: QVQLVESGGGVVQPGRSLRLSCAASGFTFSSYGIHWVRQAPGKGLEWVALIFYDGSNKYYADSVKGRFTISRDNSKNTLYLHMSSLRAEDTAVYYCARRYSSSWSGGMDVWGQGTTVTVSS
VL: DIVMTQTPLSLSVTPGQPASISCKSSQSLLHSEGKTYLYWYLQKPGQPPQLLIYEVSHRFSGVPDRFSGSGSGTDFTLKISRVEAEDVGVYYCMQSIQLLTFGGGTKVEIK
notes: mAb
As to B5, the “FACS Binding Geomean” value was determined as 28500 with human ASGR-1 (wild type) [1] and 13900 in assay [2]. For the same molecule, the “Normalization to wt ASGR1 Binding” value in assay [3] came out at 0.945. In addition, the “Expression Normalization to mAb 65C12” value is 1.97 in the assay with human ASGR-1 (wild type) [4] and 1.86 in assay [5].

B6: 56E3 (antibody, V domains shown)
VH: QVQLVQSGAEVKKPGASVKVSCKASGYTFNSYGFSWVRQAPGQGLEWMGWISAYNGNTKEAQKFQGRVTMTTDTSTSTAYMELRSLRADDTAVYYCARHDFWSGYYKGMDVWGQGTTVTVSS
VL: not shown
notes: mAb
B6: the results for the “FACS Binding Geomean” value (with human ASGR-1 (wild type) [1]; in assay [2]) were 33900 and 20400, respectively. Moreover, the “Normalization to wt ASGR1 Binding” value in assay [3] was 0.762. In addition, the “Expression Normalization to mAb 65C12” value stood at 1.66 with human ASGR-1 (wild type) [4] and 1.26 in assay [5].

B7: 85F7 (antibody, V domains shown)
VH: QVQLQQWGAGLLKPSEPLSLTCAVYGGSFSGPYWSWIRQPPGKGLEWIGEINHSGSTNYNPSLKSRVTISVDTSKNQFSLKLTSVTAADTAVYYCARDYGGLDVWGQGTTVTVSS
VL: EPVLTQSPGTLSLSPGERATLSCRASQNIYSNYLAWYQQKPGQAPRLLIYGASSRATGIPDRFSGSGSGTDFTLTISRLEPEDFAVYCCQQYESSPWTFGQGTKVEIK
notes: mAb
For the molecule B7, the results for the “FACS Binding Geomean” value (with human ASGR-1 (wild type) [1]; in assay [2]) were 33000 and 16500, respectively. Also, in assay [3], the “Normalization to wt ASGR1 Binding” value was 0.917. Besides, the results for the “Expression Normalization to mAb 65C12” value (with human ASGR-1 (wild type) [4]; in assay [5]) were 1.7 and 1.56, respectively.

B8: 213B3 (antibody, V domains shown)
VH: QVQLVESGGGVVQPGRSLRLSCAASGFTFSSYGMHWVRQAPGKGLEWVAVIWYDGSNKNYADSVKGRFTISRDNSKNTLYLQMNSLRAEDTAVYYCARDRTVGYDGFDIWGQGTMVTVSS
VL: DIQMTQSPSSLSASVGDRVTITCRASQGIGKYLAWFQQKPGKAPKSLISAASSVLSGVPSKFSGSGSGTDFTLTISSLQPEDFATYYCQKYDTYPFTFGPGTKVDIK
notes: mAb
Turning to B8, the results for the “FACS Binding Geomean” value (with human ASGR-1 (wild type) [1]; in assay [2]) were 15100 and 12800, respectively. Also, the “Normalization to wt ASGR1 Binding” value in assay [3] is 0.539. In addition, the “Expression Normalization to mAb 65C12” value with human ASGR-1 (wild type) [4] amounted to 3.72; in assay [5], 2.01.

The values above are taken from US20190248902A1 (published 2019).
